Several values for one entry are separate records, joined by “and”; a condition that tells them apart may be missing. Equal values may be shown once. Read-outs that look alike come from different tables or passages of the source.
Key:
[1] = biological target: T1, urokinase (Homo sapiens, UniProt P00749); experiment: Kinetics of urokinase activation of plasminogen species (S-2251 coupled assay, method of Wohl et al.); assay type: biochemical; settings: 5.8 nM urokinase, 1 mM S-2251, 37° C., pH 7.5
Description: Increases in absorbance were monitored at 405 nm.
Activation of delta-plasminogen to delta-plasmin was complete within 3 minutes under these conditions. Very similar results were obtained with tPA and streptokinase.
Data were fit to a Michaelis-Menten kinetic model using Lineweaver-Burk analysis, resulting in the values below: […]

[2] = biological target: T1, urokinase; settings: urokinase activation; Wohl et al. 1980; read-out: Km, literature value; cited from earlier work
[3] = system: retracted whole human blood clots; experiment: In vitro model of catheter-assisted thrombolysis, lysis of retracted whole-blood clots; settings: single 1-ml dose injected into clot, 60 min at 37° C.; delta-plasmin 0.44 mg, plasmin 1.0 mg (equimolar)
Description: FIG. 11 is a graphic representation of delta-plasmin-induced lysis of retracted whole-blood clots. Each clot (0.8×7 cm) was injected with a 1 ml volume of vehicle (acidified saline, pH 3.6), plasmin (1.0 mg/ml), or delta-plasmin (0.44 mg/ml), and clot dissolution was allowed to proceed at 37° C. for 1 hour.
The thrombolytic efficacy of delta-plasmin was tested in an in vitro model of catheter-assisted thrombolysis (Novokhatny, V. et al., J Thromb Haemost., 1(5):1034-41 (2003), incorporated by reference) using the following experimental protocol.
Fresh whole human blood was collected into 20×0.95 cm glass tubes and allowed to clot spontaneously without additives. Tubes were incubated for 20 hr at 37° C. to allow full retraction. Retracted clots were separated from serum using USA Standard testing sieves D16 with 14 mesh, and their weights were determined. […]
Single 1-ml doses of acidified saline, plasmin, or delta-plasmin were injected into the clot using a syringe. […] After the incubation, the clots were placed again on the sieve to remove the liquefied material and the weight of the digested clots was measured. The extent of clot lysis was determined from the difference between the initial clot weight and the weight of residual clot and was expressed as a percent of clot weight reduction.

[4] = biological target: T2, α2-antiplasmin (Homo sapiens, UniProt P08697); settings: literature value, Anonick et al. 1990; cited from earlier work
T2 sequence (P08697 40-491): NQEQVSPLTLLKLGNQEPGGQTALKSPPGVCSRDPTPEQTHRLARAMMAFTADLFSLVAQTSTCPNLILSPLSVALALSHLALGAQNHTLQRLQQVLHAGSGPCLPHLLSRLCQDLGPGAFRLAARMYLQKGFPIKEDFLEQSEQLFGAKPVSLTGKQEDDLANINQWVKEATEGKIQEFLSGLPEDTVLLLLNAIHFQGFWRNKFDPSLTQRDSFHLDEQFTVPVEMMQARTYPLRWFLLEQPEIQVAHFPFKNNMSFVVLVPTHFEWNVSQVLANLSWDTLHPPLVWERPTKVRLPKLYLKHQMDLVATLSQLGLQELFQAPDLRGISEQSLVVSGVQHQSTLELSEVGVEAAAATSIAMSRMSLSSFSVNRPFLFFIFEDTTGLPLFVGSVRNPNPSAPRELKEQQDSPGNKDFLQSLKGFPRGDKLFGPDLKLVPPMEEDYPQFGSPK

[5] = Amidolytic activity, steady-state kinetics with substrate S-2251; assay type: biochemical; settings: S-2251, PBS buffer, pH 7.4, 25° C.; for kcat: delta-plasmin corrected for percent active sites
[6] = biological target: T3, α2-macroglobulin (Homo sapiens, UniProt P01023); experiment: Rate of inhibition by α2-macroglobulin (method of Anonick et al.); assay type: biochemical; settings: 22° C. in PBS buffer, pH 7.4
T3 sequence (P01023 24-1474): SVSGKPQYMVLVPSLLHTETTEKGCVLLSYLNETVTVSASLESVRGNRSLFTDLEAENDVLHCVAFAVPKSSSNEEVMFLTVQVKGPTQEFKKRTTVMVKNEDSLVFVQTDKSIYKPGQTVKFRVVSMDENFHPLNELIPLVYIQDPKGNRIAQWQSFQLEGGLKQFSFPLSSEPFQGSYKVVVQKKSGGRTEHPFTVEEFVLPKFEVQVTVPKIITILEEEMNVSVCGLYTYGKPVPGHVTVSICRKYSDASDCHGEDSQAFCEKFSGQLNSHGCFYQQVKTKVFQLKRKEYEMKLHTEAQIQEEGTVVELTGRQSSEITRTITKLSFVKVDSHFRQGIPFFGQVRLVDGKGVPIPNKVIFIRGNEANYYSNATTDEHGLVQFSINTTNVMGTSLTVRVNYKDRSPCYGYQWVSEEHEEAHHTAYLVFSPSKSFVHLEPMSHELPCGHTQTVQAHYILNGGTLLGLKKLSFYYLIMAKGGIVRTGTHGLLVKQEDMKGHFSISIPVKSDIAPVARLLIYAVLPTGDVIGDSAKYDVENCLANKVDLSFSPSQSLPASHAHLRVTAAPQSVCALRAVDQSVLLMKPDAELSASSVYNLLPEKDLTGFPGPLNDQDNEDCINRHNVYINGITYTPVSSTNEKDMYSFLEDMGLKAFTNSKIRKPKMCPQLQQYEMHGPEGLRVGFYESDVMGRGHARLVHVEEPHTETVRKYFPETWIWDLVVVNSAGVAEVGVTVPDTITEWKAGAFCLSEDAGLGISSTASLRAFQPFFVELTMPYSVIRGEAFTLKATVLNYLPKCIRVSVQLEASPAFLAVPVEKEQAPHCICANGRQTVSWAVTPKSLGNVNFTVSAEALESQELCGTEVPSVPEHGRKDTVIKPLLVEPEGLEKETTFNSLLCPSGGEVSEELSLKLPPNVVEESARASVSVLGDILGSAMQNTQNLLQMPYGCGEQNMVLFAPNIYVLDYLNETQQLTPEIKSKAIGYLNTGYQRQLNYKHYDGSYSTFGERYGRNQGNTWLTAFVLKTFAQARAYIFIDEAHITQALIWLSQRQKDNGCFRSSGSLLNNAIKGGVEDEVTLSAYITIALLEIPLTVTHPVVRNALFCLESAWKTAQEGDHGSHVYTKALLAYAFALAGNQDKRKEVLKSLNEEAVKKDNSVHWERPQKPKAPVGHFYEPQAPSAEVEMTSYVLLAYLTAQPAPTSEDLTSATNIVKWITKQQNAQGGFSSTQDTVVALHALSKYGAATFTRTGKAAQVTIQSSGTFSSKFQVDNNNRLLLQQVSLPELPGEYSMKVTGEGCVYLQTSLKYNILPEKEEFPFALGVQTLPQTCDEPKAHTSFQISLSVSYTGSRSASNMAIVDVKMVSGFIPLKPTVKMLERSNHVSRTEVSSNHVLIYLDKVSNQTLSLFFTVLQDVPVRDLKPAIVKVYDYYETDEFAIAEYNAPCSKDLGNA
Description: The rate of inhibition of delta-plasmin by α2-macroglobulin was measured using the method of Anonick et al. (Anonick, P., et al., Thrombosis Res. 59:449-462 (1990)).
(§1) Literature values are taken from Anonick, et al., Thrombosis Res. 59:449 (1990). All rates were measured according to the methods published in Anonick, et al.

[7] = biological target: T2, α2-antiplasmin; experiment: Rate of inhibition by α2-antiplasmin (method of Wiman and Collen, S-2251 activity at time points); assay type: biochemical; settings: 22° C. in PBS buffer, pH 7.4
Description: as §1

Molecule | Km [1] [µM] | kcat [1] [s⁻¹] | Km [2] [µM] | clot weight reduction [3] [%] | inhibition rate by α2-antiplasmin (lit.) [4] | Km [5] [µM] | kcat [5] [s⁻¹] | kcat ([5]; listed as full-length plasmin) [s⁻¹] | inhibition rate by α2-macroglobulin [6] | inhibition rate by α2-antiplasmin [7]
Plasminogen: human plasminogen, single-chain protein containing 791 amino acid residues | 1.2 | 0.0383 ± 0.005 | 1.7 | – | – | – | – | – | – | –
plasmin: two-chain, disulfide-linked serine protease from activation of plasminogen (antibody) heavy: EPLDDYVNTQGASLFSVTKKQLGAGSIEECAAKCEEDEEFTCRAFQYHSKEQQCVIMAENRKSSIIIRMRDVVLFEKKVYLSECKTGNGKNYRGTMSKTKNGITCQKWSSTSPHRPRFSPATHPSEGLEENYCRNPDNDPQGPWCYTTDPEKRYDYCDILECEEECMHCSGENYDGKISKTMSGLECQAWDSQSPHAHGYIPSKFPNKNLKKNYCRNPDRELRPWCFTTDPNKRWELCDIPRCTTPPPSSGPTYQCLKGTGENYRGNVAVTVSGHTCQHWSAQTPHTHNRTPENFPCKNLDENYCRNPDGKRAPWCHTTNSQVRWEYCKIPSCDSSPVSTEQLAPTAPPELTPVVQDCYHGDGQSYRGTSSTTTTGKKCQSWSSMTPHRHQKTPENYPNAGLTMNYCRNPDADKGPWCFTTDPSVRWEYCNLKKCSGTEASVVAPPPVVLLPDVETPSEEDCMFGNGKGYRGKRATTVTGTPCQDWAAQEPHRHSIFTPETNPRAGLEKNYCRNPDGDVGGPWCYTTNPRKLYDYCDVPQCAAPSFDCGKPQVEPKKCPGR light: VVGGCVAHPHSWPWQVSLRTRFGMHFCGGTLISPEWVLTAAHCLEKSPRPSSYKVILGAHQEVNLEPHVQEIEVSRLFLEPTRKDIALLKLSSPAVITDKVIPACLPSPNYVVADRTECFITGWGETQGTFGAGLLKEAQLPVIENKVCNRYEFLNGRVQSTELCAGHLAGGTDSCQGDSGGPLVCFEKDKYILQGVTSWGLGCARPNKPGVYVRVSRFVTWIEGVMRNN | – | – | – | 50 | 2.5×10^7 M^−1s^−1 and 2.5 +/− 0.5 × 10^7 M^−1s^−1 | 193 | 12.7 ± 0.383 | 12.7 ± 0.383 | 6.5 +/− 0.5 × 10^5 M^−1s^−1 | –
micro-plasmin: plasmin species lacking all five kringles (protein) APSFDCGKPQVEPKKCPGRVVGGCVAHPHSWPWQVSLRTRFGMHFCGGTLISPEWVLTAAHCLEKSPRPSSYKVILGAHQEVNLEPHVQEIEVSRLFLEPTRKDIALLKLSSPAVITDKVIPACLPSPNYVVADRTECFITGWGETQGTFGAGLLKEAQLPVIENKVCNRYEFLNGRVQSTELCAGHLAGGTDSCQGDSGGPLVCFEKDKYILQGVTSWGLGCARPNKPGVYVRVSRFVTWIEGVMRNN | – | – | – | – | – | 145 | 13.2 ± 0.4 | – | 7.8 +/− 0.6 × 10^5 M^−1s^−1 | 1.8×10^5 M^−1s^−1 and 3.1×10^5 M^−1s^−1 and 1.8 +/− 0.2 × 10^5 M^−1s^−1
mini-plasmin: activated mini-plasminogen (Val443-Asn791), fifth kringle and serine protease domain (K5-SP) (protein) chain 1: VAPPPVVLLPDVETPSEEDCMFGNGKGYRGKRATTVTGTPCQDWAAQEPHRHSIFTPETNPRAGLEKNYCRNPDGDVGGPWCYTTNPRKLYDYCDVPQCAAPSFDCGKPQVEPKKCPGR chain 2: VVGGCVAHPHSWPWQVSLRTRFGMHFCGGTLISPEWVLTAAHCLEKSPRPSSYKVILGAHQEVNLEPHVQEIEVSRLFLEPTRKDIALLKLSSPAVITDKVIPACLPSPNYVVADRTECFITGWGETQGTFGAGLLKEAQLPVIENKVCNRYEFLNGRVQSTELCAGHLAGGTDSCQGDSGGPLVCFEKDKYILQGVTSWGLGCARPNKPGVYVRVSRFVTWIEGVMRNN | – | – | – | – | – | 160 | 12.8 ± 1.17 | – | 7.5 +/− 0.3 × 10^5 M^−1s^−1 | 2.4×10^5 M^−1s^−1 and 2.4 +/− 0.5 × 10^5 M^−1s^−1

— patent US8034913B2, “Recombinantly modified plasmin” (Grifols Therapeutics Inc., priority 2004, dated 2011)
